As usually defined, the Kd is the concentration at which binding is half-saturated.

Assay [1] has as its target T1, Ctla-4 with EGFP-tag (labeled protein of the MST assay) (zebrafish).
T1 construct: zebrafish Ctla-4 (XM_005167519.4)
As to the kind of experiment: MST; Monolith NT.115; labeled proteins (Cd28/Ctla-4 with EGFP-tag) incubated with 16 doubling dilutions of unlabeled Cd80/86 from 3.2 µM, 10 min at room temperature; 25℃, 40% LED, medium MST power.

Assay [2] concerns the target T2, Cd28 with EGFP-tag (labeled protein of the MST assay) (zebrafish).
T2 construct: zebrafish Cd28; identifier not given
The assay is described as above.

T2 sequence (partner, as listed by the source): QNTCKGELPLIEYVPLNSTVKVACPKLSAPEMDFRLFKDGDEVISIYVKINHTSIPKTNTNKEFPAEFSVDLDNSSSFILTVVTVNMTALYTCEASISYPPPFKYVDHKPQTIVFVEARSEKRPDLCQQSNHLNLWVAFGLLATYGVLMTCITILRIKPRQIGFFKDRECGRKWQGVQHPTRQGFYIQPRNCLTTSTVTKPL
T1 sequence (partner, as listed by the source): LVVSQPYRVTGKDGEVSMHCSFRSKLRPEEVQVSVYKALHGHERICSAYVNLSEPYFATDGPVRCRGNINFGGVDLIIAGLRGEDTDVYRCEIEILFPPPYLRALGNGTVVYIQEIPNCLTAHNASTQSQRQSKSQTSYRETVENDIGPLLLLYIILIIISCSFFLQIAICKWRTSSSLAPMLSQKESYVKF

B1: soluble Cd80/86 (extracellular domain) (domain or fragment)
chain: DNSQPKNISAVVGRSVTFRCPWNLSIPVYRLYIQKLENQPLFINGFNNGKKLPVSPEYQDRTEVNQAELSMEMTNIKLSDEGSYECVVFSSTSSRDIFQINLKVTAEFTTPESKSECSENDGAKKGRSCQMSCSAAGGYPVSDVKWLGLNQSRIRVLQNETAENSTSKTWSVNQTINYTCEHPINVSCDIGGSDSHTITICEAESFPLK
As for B1, the figures for the Kd in assay [1] and in assay [2] were 500 nM and 2640 nM, respectively.

The values above are taken from publication doi:10.1101/2024.07.24.604955, “Unraveling the Role of Ctla-4 in Intestinal Immune Homeostasis: Insights from a novel Zebrafish Model of Inflammatory Bowel Disease” (bioRxiv, 2024).
